This is an account of results in article PMC11864179 (Science Advances, 2025).

The target in this experiment is T1, HTP-3–HIM-3 complex containing His6-tagged HTP-3 and wild-type HIM-3 (C. elegans, UniProt O01820 2-739; G5EBG0 1-291).
T1 sequence (looked up) 1: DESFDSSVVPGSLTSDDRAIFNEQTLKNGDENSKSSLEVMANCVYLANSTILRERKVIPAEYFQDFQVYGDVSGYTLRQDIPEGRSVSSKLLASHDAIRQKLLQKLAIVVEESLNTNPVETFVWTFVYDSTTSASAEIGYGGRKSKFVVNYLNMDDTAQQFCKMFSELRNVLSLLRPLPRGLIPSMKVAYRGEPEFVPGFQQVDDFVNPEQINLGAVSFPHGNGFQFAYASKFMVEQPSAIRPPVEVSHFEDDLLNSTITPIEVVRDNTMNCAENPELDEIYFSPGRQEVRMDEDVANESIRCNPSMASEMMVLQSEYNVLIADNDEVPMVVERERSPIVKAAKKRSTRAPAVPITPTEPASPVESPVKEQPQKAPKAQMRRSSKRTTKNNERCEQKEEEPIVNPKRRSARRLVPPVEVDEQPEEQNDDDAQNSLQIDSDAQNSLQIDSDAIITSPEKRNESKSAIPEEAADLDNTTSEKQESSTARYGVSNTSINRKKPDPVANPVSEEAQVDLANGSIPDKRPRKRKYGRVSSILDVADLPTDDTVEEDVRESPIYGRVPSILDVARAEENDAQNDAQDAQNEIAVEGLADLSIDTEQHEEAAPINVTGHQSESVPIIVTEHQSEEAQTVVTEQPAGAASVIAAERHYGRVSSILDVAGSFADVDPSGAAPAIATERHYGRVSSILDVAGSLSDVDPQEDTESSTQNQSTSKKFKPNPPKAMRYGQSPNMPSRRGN
T1 sequence (looked up) 2: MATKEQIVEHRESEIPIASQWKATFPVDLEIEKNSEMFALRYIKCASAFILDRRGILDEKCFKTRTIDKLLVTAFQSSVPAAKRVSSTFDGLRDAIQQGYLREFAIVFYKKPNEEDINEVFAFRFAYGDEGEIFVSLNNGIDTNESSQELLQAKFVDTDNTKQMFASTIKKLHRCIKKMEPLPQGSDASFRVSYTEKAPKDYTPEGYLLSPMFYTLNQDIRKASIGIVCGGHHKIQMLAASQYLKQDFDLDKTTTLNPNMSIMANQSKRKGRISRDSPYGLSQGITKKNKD
Nature of the experiment: pull-down.

Non-standard residues stand in square brackets, D forms with d. No end group written: not given here. *: point of attachment. Biotin = O=C1N[C@H]2[C@H](CS[C@H]2CCCCC(=O)*)N1; pS = N[C@@H](COP(=O)(O)O)C(=O)O

Regarding Biotin-DDDLNDEEGDADQ[pS]IWGSDD [SYP-5 peptide spanning residues 528 to 547, phosphorylated at S541], the binding result is recorded as “binds”.
